Experimental data taken from US20230250154A1.
Each block holds one binder with its values, some of them ahead of it.

Target: Protease Mixtures
Assay: cell-based or functional assay

Protease Inhibition (% of WT); Protease Mixtures, Collagen Substrate: 250 % of WT | Protease Inhibition (% of WT); Protease Mixtures, IGD Substrate: 229 % of WT
B1: Variant A2M, bait region SEQ ID NO 126, P01023 24-1474 (protein)
chain: SVSGKPQYMVLVPSLLHTETTEKGCVLLSYLNETVTVSASLESVRGNRSLFTDLEAENDVLHCVAFAVPKSSSNEEVMFLTVQVKGPTQEFKKRTTVMVKNEDSLVFVQTDKSIYKPGQTVKFRVVSMDENFHPLNELIPLVYIQDPKGNRIAQWQSFQLEGGLKQFSFPLSSEPFQGSYKVVVQKKSGGRTEHPFTVEEFVLPKFEVQVTVPKIITILEEEMNVSVCGLYTYGKPVPGHVTVSICRKYSDASDCHGEDSQAFCEKFSGQLNSHGCFYQQVKTKVFQLKRKEYEMKLHTEAQIQEEGTVVELTGRQSSEITRTITKLSFVKVDSHFRQGIPFFGQVRLVDGKGVPIPNKVIFIRGNEANYYSNATTDEHGLVQFSINTTNVMGTSLTVRVNYKDRSPCYGYQWVSEEHEEAHHTAYLVFSPSKSFVHLEPMSHELPCGHTQTVQAHYILNGGTLLGLKKLSFYYLIMAKGGIVRTGTHGLLVKQEDMKGHFSISIPVKSDIAPVARLLIYAVLPTGDVIGDSAKYDVENCLANKVDLSFSPSQSLPASHAHLRVTAAPQSVCALRAVDQSVLLMKPDAELSASSVYNLLPEKDLTGFPGPLNDQDDEDCINRHNVYINGITYTPVSSTNEKDMYSFLEDMGLKAFTNSKIRKPKMCPQLEQYEMHGPEGEGEGEGIPENFFGVSEDLVVQISELEGRGSVEEPHTKLRKYFPETWIWDLVVVNSAGVAEVGVTVPDTITEWKAGAFCLSEDAGLGISSTASLRAFQPFFVELTMPYSVIRGEAFTLKATVLNYLPKCIRVSVQLEASPAFLAVPVEKEQAPHCICANGRQTVSWAVTPKSLGNVNFTVSAEALESQELCGTEVPSVPEHGRKDTVIKPLLVEPEGLEKETTFNSLLCPSGGEVSEELSLKLPPNVVEESARASVSVLGDILGSAMQNTQNLLQMPYGCGEQNMVLFAPNIYVLDYLNETQQLTPEIKSKAIGYLNTGYQRQLNYKHYDGSYSTFGERYGRNQGNTWLTAFVLKTFAQARAYIFIDEAHITQALIWLSQRQKDNGCFRSSGSLLNNAIKGGVEDEVTLSAYITIALLEIPLTVTHPVVRNALFCLESAWKTAQEGDHGSHVYTKALLAYAFALAGNQDKRKEVLKSLNEEAVKKDNSVHWERPQKPKAPVGHFYEPQAPSAEVEMTSYVLLAYLTAQPAPTSEDLTSATNIVKWITKQQNAQGGFSSTQDTVVALHALSKYGAATFTRTGKAAQVTIQSSGTFSSKFQVDNNNRLLLQQVSLPELPGEYSMKVTGEGCVYLQTSLKYNILPEKEEFPFALGVQTLPQTCDEPKAHTSFQISLSVSYTGSRSASNMAIVDVKMVSGFIPLKPTVKMLERSNHVSRTEVSSNHVLIYLDKVSNQTLSLFFTVLQDVPVRDLKPAIVKVYDYYETDEFAIAEYNAPCSKDLGNADYKDDDDKGASHHHHHH

Protease Inhibition (% of WT); Protease Mixtures, Collagen Substrate: 180 % of WT | Protease Inhibition (% of WT); Protease Mixtures, IGD Substrate: 229 % of WT
B2: Variant A2M, bait region SEQ ID NO 127, P01023 24-1474 (protein)
chain: SVSGKPQYMVLVPSLLHTETTEKGCVLLSYLNETVTVSASLESVRGNRSLFTDLEAENDVLHCVAFAVPKSSSNEEVMFLTVQVKGPTQEFKKRTTVMVKNEDSLVFVQTDKSIYKPGQTVKFRVVSMDENFHPLNELIPLVYIQDPKGNRIAQWQSFQLEGGLKQFSFPLSSEPFQGSYKVVVQKKSGGRTEHPFTVEEFVLPKFEVQVTVPKIITILEEEMNVSVCGLYTYGKPVPGHVTVSICRKYSDASDCHGEDSQAFCEKFSGQLNSHGCFYQQVKTKVFQLKRKEYEMKLHTEAQIQEEGTVVELTGRQSSEITRTITKLSFVKVDSHFRQGIPFFGQVRLVDGKGVPIPNKVIFIRGNEANYYSNATTDEHGLVQFSINTTNVMGTSLTVRVNYKDRSPCYGYQWVSEEHEEAHHTAYLVFSPSKSFVHLEPMSHELPCGHTQTVQAHYILNGGTLLGLKKLSFYYLIMAKGGIVRTGTHGLLVKQEDMKGHFSISIPVKSDIAPVARLLIYAVLPTGDVIGDSAKYDVENCLANKVDLSFSPSQSLPASHAHLRVTAAPQSVCALRAVDQSVLLMKPDAELSASSVYNLLPEKDLTGFPGPLNDQDDEDCINRHNVYINGITYTPVSSTNEKDMYSFLEDMGLKAFTNSKIRKPKMCPQLEQYEMHGPIPENFFGVSELEGRGSEAIPMSIPTEGEGEGEGVEEPHTKLRKYFPETWIWDLVVVNSAGVAEVGVTVPDTITEWKAGAFCLSEDAGLGISSTASLRAFQPFFVELTMPYSVIRGEAFTLKATVLNYLPKCIRVSVQLEASPAFLAVPVEKEQAPHCICANGRQTVSWAVTPKSLGNVNFTVSAEALESQELCGTEVPSVPEHGRKDTVIKPLLVEPEGLEKETTFNSLLCPSGGEVSEELSLKLPPNVVEESARASVSVLGDILGSAMQNTQNLLQMPYGCGEQNMVLFAPNIYVLDYLNETQQLTPEIKSKAIGYLNTGYQRQLNYKHYDGSYSTFGERYGRNQGNTWLTAFVLKTFAQARAYIFIDEAHITQALIWLSQRQKDNGCFRSSGSLLNNAIKGGVEDEVTLSAYITIALLEIPLTVTHPVVRNALFCLESAWKTAQEGDHGSHVYTKALLAYAFALAGNQDKRKEVLKSLNEEAVKKDNSVHWERPQKPKAPVGHFYEPQAPSAEVEMTSYVLLAYLTAQPAPTSEDLTSATNIVKWITKQQNAQGGFSSTQDTVVALHALSKYGAATFTRTGKAAQVTIQSSGTFSSKFQVDNNNRLLLQQVSLPELPGEYSMKVTGEGCVYLQTSLKYNILPEKEEFPFALGVQTLPQTCDEPKAHTSFQISLSVSYTGSRSASNMAIVDVKMVSGFIPLKPTVKMLERSNHVSRTEVSSNHVLIYLDKVSNQTLSLFFTVLQDVPVRDLKPAIVKVYDYYETDEFAIAEYNAPCSKDLGNADYKDDDDKGASHHHHHH

Protease Inhibition (% of WT); Protease Mixtures, IGD Substrate: 237 % of WT
B3: Variant A2M, bait region SEQ ID NO 124, P01023 24-1474 (protein)
chain: SVSGKPQYMVLVPSLLHTETTEKGCVLLSYLNETVTVSASLESVRGNRSLFTDLEAENDVLHCVAFAVPKSSSNEEVMFLTVQVKGPTQEFKKRTTVMVKNEDSLVFVQTDKSIYKPGQTVKFRVVSMDENFHPLNELIPLVYIQDPKGNRIAQWQSFQLEGGLKQFSFPLSSEPFQGSYKVVVQKKSGGRTEHPFTVEEFVLPKFEVQVTVPKIITILEEEMNVSVCGLYTYGKPVPGHVTVSICRKYSDASDCHGEDSQAFCEKFSGQLNSHGCFYQQVKTKVFQLKRKEYEMKLHTEAQIQEEGTVVELTGRQSSEITRTITKLSFVKVDSHFRQGIPFFGQVRLVDGKGVPIPNKVIFIRGNEANYYSNATTDEHGLVQFSINTTNVMGTSLTVRVNYKDRSPCYGYQWVSEEHEEAHHTAYLVFSPSKSFVHLEPMSHELPCGHTQTVQAHYILNGGTLLGLKKLSFYYLIMAKGGIVRTGTHGLLVKQEDMKGHFSISIPVKSDIAPVARLLIYAVLPTGDVIGDSAKYDVENCLANKVDLSFSPSQSLPASHAHLRVTAAPQSVCALRAVDQSVLLMKPDAELSASSVYNLLPEKDLTGFPGPLNDQDDEDCINRHNVYINGITYTPVSSTNEKDMYSFLEDMGLKAFTNSKIRKPKMCPQLEQYEMHGPKEEEGLGSSELEGRGSEAIPMSIPTIPENFFGVVEEPHTKLRKYFPETWIWDLVVVNSAGVAEVGVTVPDTITEWKAGAFCLSEDAGLGISSTASLRAFQPFFVELTMPYSVIRGEAFTLKATVLNYLPKCIRVSVQLEASPAFLAVPVEKEQAPHCICANGRQTVSWAVTPKSLGNVNFTVSAEALESQELCGTEVPSVPEHGRKDTVIKPLLVEPEGLEKETTFNSLLCPSGGEVSEELSLKLPPNVVEESARASVSVLGDILGSAMQNTQNLLQMPYGCGEQNMVLFAPNIYVLDYLNETQQLTPEIKSKAIGYLNTGYQRQLNYKHYDGSYSTFGERYGRNQGNTWLTAFVLKTFAQARAYIFIDEAHITQALIWLSQRQKDNGCFRSSGSLLNNAIKGGVEDEVTLSAYITIALLEIPLTVTHPVVRNALFCLESAWKTAQEGDHGSHVYTKALLAYAFALAGNQDKRKEVLKSLNEEAVKKDNSVHWERPQKPKAPVGHFYEPQAPSAEVEMTSYVLLAYLTAQPAPTSEDLTSATNIVKWITKQQNAQGGFSSTQDTVVALHALSKYGAATFTRTGKAAQVTIQSSGTFSSKFQVDNNNRLLLQQVSLPELPGEYSMKVTGEGCVYLQTSLKYNILPEKEEFPFALGVQTLPQTCDEPKAHTSFQISLSVSYTGSRSASNMAIVDVKMVSGFIPLKPTVKMLERSNHVSRTEVSSNHVLIYLDKVSNQTLSLFFTVLQDVPVRDLKPAIVKVYDYYETDEFAIAEYNAPCSKDLGNADYKDDDDKGASHHHHHH

Protease Inhibition (% of WT); Protease Mixtures, IGD Substrate: 150 % of WT
B4: Variant A2M, bait region SEQ ID NO 125, P01023 24-1474 (protein)
chain: SVSGKPQYMVLVPSLLHTETTEKGCVLLSYLNETVTVSASLESVRGNRSLFTDLEAENDVLHCVAFAVPKSSSNEEVMFLTVQVKGPTQEFKKRTTVMVKNEDSLVFVQTDKSIYKPGQTVKFRVVSMDENFHPLNELIPLVYIQDPKGNRIAQWQSFQLEGGLKQFSFPLSSEPFQGSYKVVVQKKSGGRTEHPFTVEEFVLPKFEVQVTVPKIITILEEEMNVSVCGLYTYGKPVPGHVTVSICRKYSDASDCHGEDSQAFCEKFSGQLNSHGCFYQQVKTKVFQLKRKEYEMKLHTEAQIQEEGTVVELTGRQSSEITRTITKLSFVKVDSHFRQGIPFFGQVRLVDGKGVPIPNKVIFIRGNEANYYSNATTDEHGLVQFSINTTNVMGTSLTVRVNYKDRSPCYGYQWVSEEHEEAHHTAYLVFSPSKSFVHLEPMSHELPCGHTQTVQAHYILNGGTLLGLKKLSFYYLIMAKGGIVRTGTHGLLVKQEDMKGHFSISIPVKSDIAPVARLLIYAVLPTGDVIGDSAKYDVENCLANKVDLSFSPSQSLPASHAHLRVTAAPQSVCALRAVDQSVLLMKPDAELSASSVYNLLPEKDLTGFPGPLNDQDDEDCINRHNVYINGITYTPVSSTNEKDMYSFLEDMGLKAFTNSKIRKPKMCPQLEQYEMHGPSELEGRGSIPENFFGVEAIPMSIPTSEDLVVQIVEEPHTKLRKYFPETWIWDLVVVNSAGVAEVGVTVPDTITEWKAGAFCLSEDAGLGISSTASLRAFQPFFVELTMPYSVIRGEAFTLKATVLNYLPKCIRVSVQLEASPAFLAVPVEKEQAPHCICANGRQTVSWAVTPKSLGNVNFTVSAEALESQELCGTEVPSVPEHGRKDTVIKPLLVEPEGLEKETTFNSLLCPSGGEVSEELSLKLPPNVVEESARASVSVLGDILGSAMQNTQNLLQMPYGCGEQNMVLFAPNIYVLDYLNETQQLTPEIKSKAIGYLNTGYQRQLNYKHYDGSYSTFGERYGRNQGNTWLTAFVLKTFAQARAYIFIDEAHITQALIWLSQRQKDNGCFRSSGSLLNNAIKGGVEDEVTLSAYITIALLEIPLTVTHPVVRNALFCLESAWKTAQEGDHGSHVYTKALLAYAFALAGNQDKRKEVLKSLNEEAVKKDNSVHWERPQKPKAPVGHFYEPQAPSAEVEMTSYVLLAYLTAQPAPTSEDLTSATNIVKWITKQQNAQGGFSSTQDTVVALHALSKYGAATFTRTGKAAQVTIQSSGTFSSKFQVDNNNRLLLQQVSLPELPGEYSMKVTGEGCVYLQTSLKYNILPEKEEFPFALGVQTLPQTCDEPKAHTSFQISLSVSYTGSRSASNMAIVDVKMVSGFIPLKPTVKMLERSNHVSRTEVSSNHVLIYLDKVSNQTLSLFFTVLQDVPVRDLKPAIVKVYDYYETDEFAIAEYNAPCSKDLGNADYKDDDDKGASHHHHHH
